Experiment [1] has as its system TRP2. In words: Northern blotting of TRP2 RNA in melan-a cells. The format is cell-based, murine. Here is the method: These techniques were performed as described previously (Aroca et al., 1993). Briefly, 2.0 μg of mRNA, isolated using a total RNA isolation kit and mRNA purification kit (Promega, Madison, Wis.), were electrophoresed and then blotted to Sure-Blot nylon membranes (Oncor, Gaithersburg, Md.), hybridized with ^32P-labeled probes, dehybridized and rehybridized with other probes again as necessary. TYRS-J, the probe specific for tyrosinase, was kindly provided by Drs. H. Yamamoto and T. Takeuchi, Sendai, Japan and is described in Yamamoto et al Japan J. Genetics Vol 62:271-274, 1987. pMT4, specific for TRP1, was provided by Dr. S. Shibahara, Sendai, Japan and is described in Shibahara, S. et al Nucleic Acid Res. Vol 14:2413-2427, 1986. TRP2a, specific for TRP2 was provided by Dr. I. Jackson, Edinburgh, Scotland and is described in Jackson, I et al. EMBO Vol 11:527-535, 1992. gp100, specific for silver, was provided by Dr. Y. Kawakami, Bethesda, Md. and is described in Kawakami et al PNAS, Vol. 91, 6458-6462, 1994.
Recombinant agouti protein was purified from baculovirus system by Dr. Michael Ollmann in Dr. Gregory Barsh's laboratory by methods known in the art. 2×10^6 cells were seeded per 15 cm diameter dish. The medium was changed everyday, and fresh agouti protein and/or αMSH added everyday usually at 10 nM. To examine transcriptional regulation, total RNA was isolated and Northern blotting performed by methods described in Example 1. The A26 probe to the MSH-R was provided by Dr. R. Cone and is described in Mountjoy et al. Science 257:1248-1251, 1992. At the translational level, metabolic labeling was used in conjunction with immunoprecipitation as described in Example 1. Western blotting and enzyme assay was used to examine function.
The effects of agouti protein on expression of TRP1, TRP2, and the MSH receptor were examined.
Total RNA was extracted from cells using an RNeasy total RNA isolation kit (QIAGEN, Catsworth, Calif.), following the manufacturer's instructions. […]

Experiment [2] relates to TRP2. Briefly: DOPAchrome tautomerase enzyme assay on extracts of treated melan-a cells. The format is cell-based, murine. The conditions noted are these: extracts of melan-a cells cultured 5 days; 10 nM. Here is the method:
Assays for melanogenic catalytic activities as described below were carried out at pH 6.8, 37° C. for 60 minutes. (1) Tyrosine hydroxylase activity was measured using the [^3H]tyrosine assay (Hearing and Ekel, 1976; Hearing, 1987). This method specifically measures the tritiated water produced during the hydroxylation of tyrosine to DOPA. (2) DOPA oxidase activity was measured using incorporation of [3-^14C]DOPA into acid-insoluble melanin as detailed previously (Aroca et al., 1993). (3) DOPAchrome tautomerase activity was measured by HPLC as the disappearance of DOPAchrome substrate and the production of DHICA rather than DHI; data are converted to pmol products by comparison with known standards. The HPLC assay was detailed previously (Palumbo et al., 1987; Tsukamoto et al., 1992). (4) DHI oxidase and DHICA oxidase activities were measured by HPLC as the disappearance of these substrates from reaction mixtures compared to controls for spontaneous auto-oxidation; data are converted to pmol by comparison with known standard (Aroca et al., 1993). (5) Melanin production was measured using incorporation of [^14C]tyrosine into acid-insoluble melanin, also as detailed previously (Hearing and Ekel, 1976; Hearing, 1987); pmol melanin produced are calculated from the radioactive product. […]

Turning to “α-melanocyte stimulating hormone [MSH, reference compound]”, the “increase in TRP2 RNA level” value in experiment [1] (10 nM, 5 days) is listed as 50%. Further, the DOPA chome tautomerase in experiment [2] is on record as 555.0 pmol/μg protein/hr.

B1: agouti protein: Recombinant murine agouti signal protein purified from a baculovirus expression system (protein)
chain: MDVTRLLLATLVSFLCFFTVHSHLALEETLGDDRSLRSDSSMNSLDFSSVSIVALNKKSKKISRKEAEKRKRSSKKKASMKKVARPPPPSPCVATRDSCKPPAPACCDPCASCQCRFFGSACTCRVLNPNC
With B1, the “RNA level of TRP2” value in experiment [1] (10 nM, 5 days) was “nearly a fivefold decrease”. In experiment [1] (24 hours, different concentrations), the “level of TRP2 RNA” value is listed as “reduced, but not to the same extent as tyrosinase RNA”. This molecule yielded a DOPA chome tautomerase in experiment [2] of 0.0 pmol/μg protein/hr.

The values above are taken from patent publication US6579848B1, “Depigmenting activity of agouti signal protein and peptides thereof” (The United States of America as represented by the …, priority 1995, dated 2003).
